Source: CN114369161A (HEFEN TIANKPORT IMMUNOLOGICAL DRUG CO LTD, dated 2022)

What was measured:
[1] = biological target: T1, MICA胞外区α3结构域Fc融合蛋白(MICAα3-Fc); assay: ELISA (legend of Fig. 2)
T1 construct: also called MICAα3-Fc融合蛋白; MICA α3结构域

MICA (CHO-K1-MICA细胞表达) = biological target: T2, MICA (CHO-K1-MICA细胞表达) (Homo sapiens (Human), UniProt Q29983 24-383); assay: flow cytometry (legend of Fig. 3)
T2 construct: also called MICA蛋白
T2 sequence: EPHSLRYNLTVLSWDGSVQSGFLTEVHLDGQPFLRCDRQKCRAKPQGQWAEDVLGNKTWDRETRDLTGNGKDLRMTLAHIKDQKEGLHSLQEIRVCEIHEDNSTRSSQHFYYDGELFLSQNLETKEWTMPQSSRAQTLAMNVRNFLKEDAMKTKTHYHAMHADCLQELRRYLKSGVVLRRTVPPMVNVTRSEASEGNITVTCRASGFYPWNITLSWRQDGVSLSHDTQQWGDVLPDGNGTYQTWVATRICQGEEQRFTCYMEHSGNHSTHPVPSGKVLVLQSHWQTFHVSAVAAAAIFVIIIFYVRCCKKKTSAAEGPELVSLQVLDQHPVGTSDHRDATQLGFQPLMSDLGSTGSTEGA

MICB (CHO-K1-MICB细胞表达) = biological target: T3, MICB (CHO-K1-MICB细胞表达) (Homo sapiens (Human), UniProt Q29980 23-382); assay: flow cytometry (legend of Fig. 4)
T3 chain: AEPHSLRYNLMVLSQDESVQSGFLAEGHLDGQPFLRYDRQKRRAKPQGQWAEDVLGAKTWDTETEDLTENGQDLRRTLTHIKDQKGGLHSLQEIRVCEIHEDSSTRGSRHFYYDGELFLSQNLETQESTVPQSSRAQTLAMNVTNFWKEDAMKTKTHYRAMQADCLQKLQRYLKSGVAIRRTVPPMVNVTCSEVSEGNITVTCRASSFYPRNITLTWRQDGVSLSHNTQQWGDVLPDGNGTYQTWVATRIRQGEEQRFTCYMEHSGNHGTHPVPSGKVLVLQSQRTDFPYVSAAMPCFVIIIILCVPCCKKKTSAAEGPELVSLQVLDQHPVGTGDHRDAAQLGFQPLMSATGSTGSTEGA

重组MICA胞外区Fc融合蛋白(MICA-Fc) = biological target: T4, 重组MICA胞外区Fc融合蛋白(MICA-Fc) (human); assay: ELISA, MICA-Fc coated at 1 μg/mL, HRP anti-mouse secondary
T4 construct: also called MICA-Fc融合蛋白; 人MICA

Measured: binding result

T1 sequence (chain, as listed by the source limits assumed): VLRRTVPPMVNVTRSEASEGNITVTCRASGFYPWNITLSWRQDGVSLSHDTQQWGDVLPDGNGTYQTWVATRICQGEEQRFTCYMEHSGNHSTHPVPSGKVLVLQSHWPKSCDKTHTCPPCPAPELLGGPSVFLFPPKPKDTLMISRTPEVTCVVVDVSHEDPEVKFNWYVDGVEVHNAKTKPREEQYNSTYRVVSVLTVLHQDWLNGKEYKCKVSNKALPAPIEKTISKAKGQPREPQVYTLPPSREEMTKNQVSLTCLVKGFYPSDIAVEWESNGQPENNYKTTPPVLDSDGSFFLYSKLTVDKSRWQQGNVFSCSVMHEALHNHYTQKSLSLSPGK

B1: MICA抗体(编号为11G3) (antibody, V domains shown)
VH: QIQLVQSGPELKKPGESVKISCKASGYTFTDYGINWVKQAPGKGLKWVGWINTYTGEPINADDFKGRFALSLETSANTAYLQINNLKNEDMATYFCTRLSTVAVGAWFEYWGQGTLVTVSA
VL: DVLMTQTPLSLPVSLGDQASISCRSSQNIVHSNGNTYLEWYLQKPGQSPKLLIYKVSNRFSGVPDRFSGSGSGTDFTLKISRVEAEDLGVYYCFQGSHVPTFGGGTKLEIK
notes: also called 鼠单抗; 本发明的抗体
binds: all assays above
